In the Human Domainome abundance scans (Beltran et al. 2025):
± gives the uncertainty stated by the source.

B1: Homeobox protein cut-like 1, residues 941 to 1008; numbered along this chain, P39880 (parent)
chain: QEVDTIELTRQVKEKLAKNGICQRIFGEKVLGLSQGSVSDMLSRPKPWSKLTQKGREPFIRMQLWLNG

Variants of: B1
Experiment: abundance fitness (aPCA) (normalised: wild type 0, dead -1); higher = more abundant; growth selection in yeast, the domain comes from the species named
Conditions: Homo sapiens

Variant	abundance fitness
QEVDTIELTRQVKEKLAKNGICQRIFGEKVLGLSQGSVSDMLSRPKQWSKLTQKGREPFIRMQLWLNG [P47Q]	-0.068 ± 0.074
QEVDTIELTRQVKEKLAKNGICQRIFGEKVLGLSQGSVSDMLSRPKFWSKLTQKGREPFIRMQLWLNG [P47F]	-0.012 ± 0.12
QEVDTIELTRQVKEKLAKNGICQRIFGEKVLGLSQGSVSDMLSRPKPWSKLTQKGAEPFIRMQLWLNG [R56A]	-0.479 ± 0.086
QEVDTIELTRQVKEKLAKNGICQRIFGEKVLGLSQGSVSDMLSRPKPWSKLTQKGSEPFIRMQLWLNG [R56S]	-0.598 ± 0.076
QEVDTIELTRQVKEKLAKNGICQRIFGEKVLGLSQGSVSDMLSRPKPSSKLTQKGREPFIRMQLWLNG [W48S]	-0.817 ± 0.073
QEVDTIELTRQVKEKLAKNGICQRIFGEKVLGLSQGSVSDMLSRPKPISKLTQKGREPFIRMQLWLNG [W48I]	-1 ± 0.2
QEVDTIELTRQVKEKLAKNGICQRIFGEKVLGLSQGSVSDMLSRPKPWSKLTQKGRETFIRMQLWLNG [P58T]	0.052 ± 0.076
QEVDTIELTRQVKEKLAKNGICQRIFGEKVLGLSQGSVSDMLSRPKPWSKLTQKGREQFIRMQLWLNG [P58Q]	-0.036 ± 0.074
QEVDTIELTRQVKEKLAKNGICQRIFGEKVLGLSQGSVSDMLSRPKPWSKLTQKGRELFIRMQLWLNG [P58L]	0.109 ± 0.044
QEVDTIELTRQVKEKLAKNGICQRIFGEKVLGLSQGSVSDMLSRPGPWSKLTQKGREPFIRMQLWLNG [K46G]	-0.315 ± 0.051
QEVDTIELTRQVKEKLAKNGICQRIFGEKVLGLSQGSVSDMLSRPLPWSKLTQKGREPFIRMQLWLNG [K46L]	-0.07 ± 0.05
QIVDTIELTRQVKEKLAKNGICQRIFGEKVLGLSQGSVSDMLSRPKPWSKLTQKGREPFIRMQLWLNG [E2I]	-0.085 ± 0.031
QQVDTIELTRQVKEKLAKNGICQRIFGEKVLGLSQGSVSDMLSRPKPWSKLTQKGREPFIRMQLWLNG [E2Q]	-0.093 ± 0.029
QNVDTIELTRQVKEKLAKNGICQRIFGEKVLGLSQGSVSDMLSRPKPWSKLTQKGREPFIRMQLWLNG [E2N]	-0.227 ± 0.031
QEVDTIELTRQVKEKLAKNGICQRIFGEKVLGLSMGSVSDMLSRPKPWSKLTQKGREPFIRMQLWLNG [Q35M]	-0.033 ± 0.062
QEVDTLELTRQVKEKLAKNGICQRIFGEKVLGLSQGSVSDMLSRPKPWSKLTQKGREPFIRMQLWLNG [I6L]	-0.161 ± 0.045
QEVDTSELTRQVKEKLAKNGICQRIFGEKVLGLSQGSVSDMLSRPKPWSKLTQKGREPFIRMQLWLNG [I6S]	-0.259 ± 0.053
QEVDTIELTRQVKEKLAVNGICQRIFGEKVLGLSQGSVSDMLSRPKPWSKLTQKGREPFIRMQLWLNG [K18V]	-0.184 ± 0.05
QEVDTIELTRQVKEKLAKNGICQRIFGEKVLGLSQGSVSWMLSRPKPWSKLTQKGREPFIRMQLWLNG [D40W]	-0.155 ± 0.11
QEVDTIELTRQVKEKLAKNGICQRIFGEKVLGLSQGSVSDMLSRPKPWSKLTQKDREPFIRMQLWLNG [G55D]	0.084 ± 0.074
QEVDTIELTRQVKEKLAKNGICQRIFGEKVLGLSQGSVSDMLSRPKPWSKLTQKNREPFIRMQLWLNG [G55N]	-0.792 ± 0.21
QEVDTIELTRQVKEKLAKNGICQRIFGEKVLGLSQGSVSDMLSRPKPWSKLTQKGREPFIRKQLWLNG [M62K]	-0.793 ± 0.14
QEVDTIELTRQVKEKLAKNGICQRIFGEKVLGLSQGSVSDMLSRPKPWHKLTQKGREPFIRMQLWLNG [S49H]	0.025 ± 0.12
QEVDTIELTSQVKEKLAKNGICQRIFGEKVLGLSQGSVSDMLSRPKPWSKLTQKGREPFIRMQLWLNG [R10S]	-0.111 ± 0.055
QEVDTIELTRQVKEKLAKNGICQRIFGEKVLGLCQGSVSDMLSRPKPWSKLTQKGREPFIRMQLWLNG [S34C]	-0.09 ± 0.084
QEVDTIELTRQVKEKLAKNGICQRAFGEKVLGLSQGSVSDMLSRPKPWSKLTQKGREPFIRMQLWLNG [I25A]	-0.002 ± 0.062
QEVDTIELTRQVKEKLAKNGICQRYFGEKVLGLSQGSVSDMLSRPKPWSKLTQKGREPFIRMQLWLNG [I25Y]	0.014 ± 0.086

Variant	abundance fitness
QEVDTIELTRQVKEKLAKNGICQRIFGEKVLMLSQGSVSDMLSRPKPWSKLTQKGREPFIRMQLWLNG [G32M]	-0.226 ± 0.088
QEVDTIELTRQVKEKLAKNGICQRIFGKKVLGLSQGSVSDMLSRPKPWSKLTQKGREPFIRMQLWLNG [E28K]	-0.106 ± 0.076
QEVDTIELTRQVKEKLAKNGICQRIFGDKVLGLSQGSVSDMLSRPKPWSKLTQKGREPFIRMQLWLNG [E28D]	-0.307 ± 0.11
QEVDTIELARQVKEKLAKNGICQRIFGEKVLGLSQGSVSDMLSRPKPWSKLTQKGREPFIRMQLWLNG [T9A]	0.026 ± 0.063
QEVDTIELGRQVKEKLAKNGICQRIFGEKVLGLSQGSVSDMLSRPKPWSKLTQKGREPFIRMQLWLNG [T9G]	-0.047 ± 0.063
QEVDTIELTRQVKEKLAKNGICQRIFGEKVLGLSQGWVSDMLSRPKPWSKLTQKGREPFIRMQLWLNG [S37W]	-0.108 ± 0.069
QEVDTIELTRQVKEKLAKNGICQRIFGEKVLGLSQGMVSDMLSRPKPWSKLTQKGREPFIRMQLWLNG [S37M]	-0.126 ± 0.085
QEVDTIELTRAVKEKLAKNGICQRIFGEKVLGLSQGSVSDMLSRPKPWSKLTQKGREPFIRMQLWLNG [Q11A]	-0.13 ± 0.067
QEVDTIELTRQVKEKLAKNGICQRIFGEKVYGLSQGSVSDMLSRPKPWSKLTQKGREPFIRMQLWLNG [L31Y]	-0.351 ± 0.1
QEVDTIELTRQVKEKLAKNGICQRIFGEKVLGLSQGSVSDMLSDPKPWSKLTQKGREPFIRMQLWLNG [R44D]	0.12 ± 0.12
QEVDTIELTRQVKEKLAKNGICQRIFGEKVLGLSQQSVSDMLSRPKPWSKLTQKGREPFIRMQLWLNG [G36Q]	0.039 ± 0.078
QEVDTIELTRQVKEKLAKNGICQRIFGEKVLGLSQGSVSDMLSRPKPWSKLTQKGREPFIRMQLWLHG [N67H]	-0.128 ± 0.092
YEVDTIELTRQVKEKLAKNGICQRIFGEKVLGLSQGSVSDMLSRPKPWSKLTQKGREPFIRMQLWLNG [Q1Y]	-0.34 ± 0.13
QEVDTIELTRQVKEKLAKNGICQRIFGEKVLGGSQGSVSDMLSRPKPWSKLTQKGREPFIRMQLWLNG [L33G]	-0.219 ± 0.061
QEVDTIELTRQVKEKLAKNGICQRIFGEKVLGLSQGSVSDMLSRPKPWSKLTQKGREPFIRMQLWLNL [G68L]	-0.343 ± 0.12
QEVDTIELTRQVKEKLAKNGICQRIFGEKVLGLSQGSVSDTLSRPKPWSKLTQKGREPFIRMQLWLNG [M41T]	-0.107 ± 0.066
QEVDTIELTRQVKEKLAKNGICQFIFGEKVLGLSQGSVSDMLSRPKPWSKLTQKGREPFIRMQLWLNG [R24F]	-0.362 ± 0.097
QEVDTIELTRQVKEKLAKNGICQRIFGEKVLGLSQGSVSDMLSRPKPWSKLTQKGREPFILMQLWLNG [R61L]	-0.174 ± 0.045
QEVDTIELTRQVKEKLAKNGICQRIFGEKVLGLSQGSVSDMLSRPKPWSKLTQKGREPFINMQLWLNG [R61N]	-0.041 ± 0.11
QEVDTIELTRQVKEKLAKNGICQRIFGEKVLGLSQGSVSDMLSRPKPWSKGTQKGREPFIRMQLWLNG [L51G]	-1.04 ± 0.068
QEVDTIELTRQVGEKLAKNGICQRIFGEKVLGLSQGSVSDMLSRPKPWSKLTQKGREPFIRMQLWLNG [K13G]	-0.419 ± 0.062
QEVDTIELTRQVKEKLAKNGICQRIFGEKVLGLSQGSVSDMLSRSKPWSKLTQKGREPFIRMQLWLNG [P45S]	-0.063 ± 0.057
QEVDTIELTRQVKEKLAKNGICQRIFGEKVLGLSQGSVSDMLSRPKPWSKLTQKGREPFYRMQLWLNG [I60Y]	0.004 ± 0.093
QEVDTIELTRQVKEKLAKNGICQRIFGEKVLGLSQGSLSDMLSRPKPWSKLTQKGREPFIRMQLWLNG [V38L]	-0.026 ± 0.057
QEVDTIELTRQVKEKLAKNGICQRIFGEKVLGLSQGSRSDMLSRPKPWSKLTQKGREPFIRMQLWLNG [V38R]	-0.22 ± 0.044
QEVDTIELTRQVKEKLAKNGICQRIFGEKVLGLSQGSNSDMLSRPKPWSKLTQKGREPFIRMQLWLNG [V38N]	-0.331 ± 0.088
QEVDTIELTRQVKEKLAKNGICFRIFGEKVLGLSQGSVSDMLSRPKPWSKLTQKGREPFIRMQLWLNG [Q23F]	-0.265 ± 0.087

Variant	abundance fitness
QEVDTIELTRQVKEKLAKNGICKRIFGEKVLGLSQGSVSDMLSRPKPWSKLTQKGREPFIRMQLWLNG [Q23K]	-0.245 ± 0.093
QEVDTIELTRQVKEKLAKNGICRRIFGEKVLGLSQGSVSDMLSRPKPWSKLTQKGREPFIRMQLWLNG [Q23R]	-0.019 ± 0.051
QEVDTIELTRQVKEKLAKNGICLRIFGEKVLGLSQGSVSDMLSRPKPWSKLTQKGREPFIRMQLWLNG [Q23L]	-0.038 ± 0.051
QEVMTIELTRQVKEKLAKNGICQRIFGEKVLGLSQGSVSDMLSRPKPWSKLTQKGREPFIRMQLWLNG [D4M]	-0.153 ± 0.056
QEVDTIELTRQVKEKLAKNGICQRIFGEKVLGLSQGSVSDMLSRPKPWSKLPQKGREPFIRMQLWLNG [T52P]	-0.343 ± 0.079
QEVDTIELTRQVKEKLAKNGICQRIFGEKVLGLSQGSVSDMLSRPKPWSKLSQKGREPFIRMQLWLNG [T52S]	0.085 ± 0.069
QEVDTIELTRQVKEKLAKNGICQRIFGEKVLGLSQGSVSDMLSRPKPWSKLEQKGREPFIRMQLWLNG [T52E]	-0.343 ± 0.084
QEVDTIELTRQVKEKLAKNGICQRIFGEKVLGLSQGSVSDMLSRPKPWSKLCQKGREPFIRMQLWLNG [T52C]	-0.111 ± 0.086
QEVDDIELTRQVKEKLAKNGICQRIFGEKVLGLSQGSVSDMLSRPKPWSKLTQKGREPFIRMQLWLNG [T5D]	-0.412 ± 0.092
QEVDMIELTRQVKEKLAKNGICQRIFGEKVLGLSQGSVSDMLSRPKPWSKLTQKGREPFIRMQLWLNG [T5M]	-0.02 ± 0.067
QEVDTIEITRQVKEKLAKNGICQRIFGEKVLGLSQGSVSDMLSRPKPWSKLTQKGREPFIRMQLWLNG [L8I]	0.131 ± 0.096
QEVDTIEETRQVKEKLAKNGICQRIFGEKVLGLSQGSVSDMLSRPKPWSKLTQKGREPFIRMQLWLNG [L8E]	0.011 ± 0.083
QEVDTIELTRQVKEKLAKNGCCQRIFGEKVLGLSQGSVSDMLSRPKPWSKLTQKGREPFIRMQLWLNG [I21C]	-0.419 ± 0.1
QEVDTIELTRQVKEKLAKNGHCQRIFGEKVLGLSQGSVSDMLSRPKPWSKLTQKGREPFIRMQLWLNG [I21H]	-0.425 ± 0.11
QEVDTIELTRQVKEKLAKNGFCQRIFGEKVLGLSQGSVSDMLSRPKPWSKLTQKGREPFIRMQLWLNG [I21F]	-0.115 ± 0.11
QEVDTIELTRQVKEKLAKNGICQRIFGEKVLGLSQGSVSDMLSRPKPWSKLTQKGRMPFIRMQLWLNG [E57M]	-0.203 ± 0.071
QEVDTIELTRQVKEKLAKNGICQRIFGEKVLGLSQGSVSDMLSRPKPWSKLTQKGRAPFIRMQLWLNG [E57A]	-0.046 ± 0.074
QEVDTIELTRQVKEKLAKNGICQRIFGEKVLGLSQGSVSDMLSRPKPWSFLTQKGREPFIRMQLWLNG [K50F]	-0.141 ± 0.091
QEVDTIELTRQKKEKLAKNGICQRIFGEKVLGLSQGSVSDMLSRPKPWSKLTQKGREPFIRMQLWLNG [V12K]	-0.183 ± 0.086
QEVDTIELTRQVKEKLMKNGICQRIFGEKVLGLSQGSVSDMLSRPKPWSKLTQKGREPFIRMQLWLNG [A17M]	-0.171 ± 0.075
QEQDTIELTRQVKEKLAKNGICQRIFGEKVLGLSQGSVSDMLSRPKPWSKLTQKGREPFIRMQLWLNG [V3Q]	-0.032 ± 0.076
QEVDTIELTRQVKEKLAKNGICQRIFGEKVLGLSQGSVSDMLSRPKPWSKLTLKGREPFIRMQLWLNG [Q53L]	-0.082 ± 0.062
QEVDTIELTRQVKEKLAKNGICQRIFGEKVLGLSQGSVSDMLSRPKPWSKLTGKGREPFIRMQLWLNG [Q53G]	-0.132 ± 0.054
QEVDTIELTRQVKEKLAKNGICQRIFGEKVLGLSQGSVSDMLSRPKPWSKLTDKGREPFIRMQLWLNG [Q53D]	0.032 ± 0.081
QEVDTIELTRQVKEKLAKNGICQRIAGEKVLGLSQGSVSDMLSRPKPWSKLTQKGREPFIRMQLWLNG [F26A]	-0.649 ± 0.075
